*1 amine or outer side, *2 acyl side, *3 side chain or, on linkers, in order; H or OH if unused. Where no end group is shown, it is not given here. Side-chain parts run from the residue outwards. The star is where a group is joined. γGlu = O=C(O)[C@H](CCC(=O)[*:2])N[*:1]; Hydrocinnamoyl = O=C(CCc1ccccc1)*; Palmitoyl = CCCCCCCCCCCCCCCC(=O)*; Hexanoyl = CCCCCC(=O)*; Bz = O=C(c1ccccc1)*
T1: human VPAC2 receptor (human) (UniProt P41587)
T1 sequence: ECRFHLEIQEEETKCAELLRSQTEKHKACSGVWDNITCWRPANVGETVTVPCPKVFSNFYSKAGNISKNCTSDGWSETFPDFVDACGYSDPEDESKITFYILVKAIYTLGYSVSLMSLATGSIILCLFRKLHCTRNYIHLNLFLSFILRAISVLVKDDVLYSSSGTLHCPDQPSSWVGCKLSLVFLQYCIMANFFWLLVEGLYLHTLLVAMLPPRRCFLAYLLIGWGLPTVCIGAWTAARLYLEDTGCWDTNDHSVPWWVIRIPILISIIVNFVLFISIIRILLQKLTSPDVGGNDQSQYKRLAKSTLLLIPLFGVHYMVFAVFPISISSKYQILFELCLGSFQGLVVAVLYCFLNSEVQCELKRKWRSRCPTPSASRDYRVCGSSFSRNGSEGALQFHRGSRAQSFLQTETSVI


target: T1, human VPAC2 receptor (human)

EC50 (nM) for cAMP generation, Alpha Screen [nM]	EC50 (nM) for cAMP generation, DiscoveRx [nM]	Binder
4.01	1.7	Hydrocinnamoyl-HSDAVFTDNYTRLRKQVAAKKYLQSIKNSRTSPPP-NH2 (SMILES CC[C@H](C)[C@H](NC(=O)[C@H](CO)NC(=O)[C@H](CCC(N)=O)NC(=O)[C@H](CC(C)C)NC(=O)[C@H](Cc1ccc(O)cc1)NC(=O)[C@H](CCCCN)NC(=O)[C@H](CCCCN)NC(=O)[C@H](C)NC(=O)[C@H](C)NC(=O)[C@@H](NC(=O)[C@H](CCC(N)=O)NC(=O)[C@H](CCCCN)NC(=O)[C@H](CCCNC(=N)N)NC(=O)[C@H](CC(C)C)NC(=O)[C@H](CCCNC(=N)N)NC(=O)[C@@H](NC(=O)[C@H](Cc1ccc(O)cc1)NC(=O)[C@H](CC(N)=O)NC(=O)[C@H](CC(=O)O)NC(=O)[C@@H](NC(=O)[C@H](Cc1ccccc1)NC(=O)[C@@H](NC(=O)[C@H](C)NC(=O)[C@H](CC(=O)O)NC(=O)[C@H](CO)NC(=O)[C@H](Cc1c[nH]cn1)NC(=O)CCc1ccccc1)C(C)C)[C@@H](C)O)[C@@H](C)O)C(C)C)C(=O)N[C@@H](CCCCN)C(=O)N[C@@H](CC(N)=O)C(=O)N[C@@H](CO)C(=O)N[C@@H](CCCNC(=N)N)C(=O)N[C@H](C(=O)N[C@@H](CO)C(=O)N1CCC[C@H]1C(=O)N1CCC[C@H]1C(=O)N1CCC[C@H]1C(N)=O)[C@@H](C)O) [P90]
0.06	–	Hexanoyl-HSDAVFTDQYTRLRKQVAAKKYLQSIKQSRTSPPP-NH2 (SMILES CCCCCC(=O)N[C@@H](Cc1c[nH]cn1)C(=O)N[C@@H](CO)C(=O)N[C@@H](CC(=O)O)C(=O)N[C@@H](C)C(=O)N[C@H](C(=O)N[C@@H](Cc1ccccc1)C(=O)N[C@H](C(=O)N[C@@H](CC(=O)O)C(=O)N[C@@H](CCC(N)=O)C(=O)N[C@@H](Cc1ccc(O)cc1)C(=O)N[C@H](C(=O)N[C@@H](CCCNC(=N)N)C(=O)N[C@@H](CC(C)C)C(=O)N[C@@H](CCCNC(=N)N)C(=O)N[C@@H](CCCCN)C(=O)N[C@@H](CCC(N)=O)C(=O)N[C@H](C(=O)N[C@@H](C)C(=O)N[C@@H](C)C(=O)N[C@@H](CCCCN)C(=O)N[C@@H](CCCCN)C(=O)N[C@@H](Cc1ccc(O)cc1)C(=O)N[C@@H](CC(C)C)C(=O)N[C@@H](CCC(N)=O)C(=O)N[C@@H](CO)C(=O)N[C@H](C(=O)N[C@@H](CCCCN)C(=O)N[C@@H](CCC(N)=O)C(=O)N[C@@H](CO)C(=O)N[C@@H](CCCNC(=N)N)C(=O)N[C@H](C(=O)N[C@@H](CO)C(=O)N1CCC[C@H]1C(=O)N1CCC[C@H]1C(=O)N1CCC[C@H]1C(N)=O)[C@@H](C)O)[C@@H](C)CC)C(C)C)[C@@H](C)O)[C@@H](C)O)C(C)C) [P157]
1.9	0.76	Bz-HSDAVFTDNYTRLRKQVAAKKYLQSIKNSRTSPPP-NH2 (SMILES CC[C@H](C)[C@H](NC(=O)[C@H](CO)NC(=O)[C@H](CCC(N)=O)NC(=O)[C@H](CC(C)C)NC(=O)[C@H](Cc1ccc(O)cc1)NC(=O)[C@H](CCCCN)NC(=O)[C@H](CCCCN)NC(=O)[C@H](C)NC(=O)[C@H](C)NC(=O)[C@@H](NC(=O)[C@H](CCC(N)=O)NC(=O)[C@H](CCCCN)NC(=O)[C@H](CCCNC(=N)N)NC(=O)[C@H](CC(C)C)NC(=O)[C@H](CCCNC(=N)N)NC(=O)[C@@H](NC(=O)[C@H](Cc1ccc(O)cc1)NC(=O)[C@H](CC(N)=O)NC(=O)[C@H](CC(=O)O)NC(=O)[C@@H](NC(=O)[C@H](Cc1ccccc1)NC(=O)[C@@H](NC(=O)[C@H](C)NC(=O)[C@H](CC(=O)O)NC(=O)[C@H](CO)NC(=O)[C@H](Cc1c[nH]cn1)NC(=O)c1ccccc1)C(C)C)[C@@H](C)O)[C@@H](C)O)C(C)C)C(=O)N[C@@H](CCCCN)C(=O)N[C@@H](CC(N)=O)C(=O)N[C@@H](CO)C(=O)N[C@@H](CCCNC(=N)N)C(=O)N[C@H](C(=O)N[C@@H](CO)C(=O)N1CCC[C@H]1C(=O)N1CCC[C@H]1C(=O)N1CCC[C@H]1C(N)=O)[C@@H](C)O) [P91]
1.78	–	HSDAVFTDNYTRLRKQVAAKKYLQSIKNSRTSPPPK(Trp)-NH2 (N-terminus assumed; SMILES CC[C@H](C)[C@H](NC(=O)[C@H](CO)NC(=O)[C@H](CCC(N)=O)NC(=O)[C@H](CC(C)C)NC(=O)[C@H](Cc1ccc(O)cc1)NC(=O)[C@H](CCCCN)NC(=O)[C@H](CCCCN)NC(=O)[C@H](C)NC(=O)[C@H](C)NC(=O)[C@@H](NC(=O)[C@H](CCC(N)=O)NC(=O)[C@H](CCCCN)NC(=O)[C@H](CCCNC(=N)N)NC(=O)[C@H](CC(C)C)NC(=O)[C@H](CCCNC(=N)N)NC(=O)[C@@H](NC(=O)[C@H](Cc1ccc(O)cc1)NC(=O)[C@H](CC(N)=O)NC(=O)[C@H](CC(=O)O)NC(=O)[C@@H](NC(=O)[C@H](Cc1ccccc1)NC(=O)[C@@H](NC(=O)[C@H](C)NC(=O)[C@H](CC(=O)O)NC(=O)[C@H](CO)NC(=O)[C@@H](N)Cc1c[nH]cn1)C(C)C)[C@@H](C)O)[C@@H](C)O)C(C)C)C(=O)N[C@@H](CCCCN)C(=O)N[C@@H](CC(N)=O)C(=O)N[C@@H](CO)C(=O)N[C@@H](CCCNC(=N)N)C(=O)N[C@H](C(=O)N[C@@H](CO)C(=O)N1CCC[C@H]1C(=O)N1CCC[C@H]1C(=O)N1CCC[C@H]1C(=O)N[C@@H](CCCCNC(=O)[C@@H](N)Cc1c[nH]c2ccccc12)C(N)=O)[C@@H](C)O) [P128]
1.82	2.8	HSDAVFTDNYTRLRKQVAAKKYLQSIKNSRTSPPPK([γGlu-Palmitoyl])-NH2 (N-terminus assumed; SMILES CCCCCCCCCCCCCCCC(=O)N[C@@H](CCC(=O)NCCCC[C@H](NC(=O)[C@@H]1CCCN1C(=O)[C@@H]1CCCN1C(=O)[C@@H]1CCCN1C(=O)[C@H](CO)NC(=O)[C@@H](NC(=O)[C@H](CCCNC(=N)N)NC(=O)[C@H](CO)NC(=O)[C@H](CC(N)=O)NC(=O)[C@H](CCCCN)NC(=O)[C@@H](NC(=O)[C@H](CO)NC(=O)[C@H](CCC(N)=O)NC(=O)[C@H](CC(C)C)NC(=O)[C@H](Cc1ccc(O)cc1)NC(=O)[C@H](CCCCN)NC(=O)[C@H](CCCCN)NC(=O)[C@H](C)NC(=O)[C@H](C)NC(=O)[C@@H](NC(=O)[C@H](CCC(N)=O)NC(=O)[C@H](CCCCN)NC(=O)[C@H](CCCNC(=N)N)NC(=O)[C@H](CC(C)C)NC(=O)[C@H](CCCNC(=N)N)NC(=O)[C@@H](NC(=O)[C@H](Cc1ccc(O)cc1)NC(=O)[C@H](CC(N)=O)NC(=O)[C@H](CC(=O)O)NC(=O)[C@@H](NC(=O)[C@H](Cc1ccccc1)NC(=O)[C@@H](NC(=O)[C@H](C)NC(=O)[C@H](CC(=O)O)NC(=O)[C@H](CO)NC(=O)[C@@H](N)Cc1c[nH]cn1)C(C)C)[C@@H](C)O)[C@@H](C)O)C(C)C)[C@@H](C)CC)[C@@H](C)O)C(N)=O)C(=O)O) [P80]
0.12	–	Hexanoyl-HSDAVFTDNYTRLRKAAAAKKYLQSIKNSRTSPPP-NH2 (SMILES CCCCCC(=O)N[C@@H](Cc1c[nH]cn1)C(=O)N[C@@H](CO)C(=O)N[C@@H](CC(=O)O)C(=O)N[C@@H](C)C(=O)N[C@H](C(=O)N[C@@H](Cc1ccccc1)C(=O)N[C@H](C(=O)N[C@@H](CC(=O)O)C(=O)N[C@@H](CC(N)=O)C(=O)N[C@@H](Cc1ccc(O)cc1)C(=O)N[C@H](C(=O)N[C@@H](CCCNC(=N)N)C(=O)N[C@@H](CC(C)C)C(=O)N[C@@H](CCCNC(=N)N)C(=O)N[C@@H](CCCCN)C(=O)N[C@@H](C)C(=O)N[C@@H](C)C(=O)N[C@@H](C)C(=O)N[C@@H](C)C(=O)N[C@@H](CCCCN)C(=O)N[C@@H](CCCCN)C(=O)N[C@@H](Cc1ccc(O)cc1)C(=O)N[C@@H](CC(C)C)C(=O)N[C@@H](CCC(N)=O)C(=O)N[C@@H](CO)C(=O)N[C@H](C(=O)N[C@@H](CCCCN)C(=O)N[C@@H](CC(N)=O)C(=O)N[C@@H](CO)C(=O)N[C@@H](CCCNC(=N)N)C(=O)N[C@H](C(=O)N[C@@H](CO)C(=O)N1CCC[C@H]1C(=O)N1CCC[C@H]1C(=O)N1CCC[C@H]1C(N)=O)[C@@H](C)O)[C@@H](C)CC)[C@@H](C)O)[C@@H](C)O)C(C)C) [P178]
0.29	–	Hexanoyl-HSDAVFTDNYTRLLLKVAAKKYLQSIKNSRTSPPP-NH2 (SMILES CCCCCC(=O)N[C@@H](Cc1c[nH]cn1)C(=O)N[C@@H](CO)C(=O)N[C@@H](CC(=O)O)C(=O)N[C@@H](C)C(=O)N[C@H](C(=O)N[C@@H](Cc1ccccc1)C(=O)N[C@H](C(=O)N[C@@H](CC(=O)O)C(=O)N[C@@H](CC(N)=O)C(=O)N[C@@H](Cc1ccc(O)cc1)C(=O)N[C@H](C(=O)N[C@@H](CCCNC(=N)N)C(=O)N[C@@H](CC(C)C)C(=O)N[C@@H](CC(C)C)C(=O)N[C@@H](CC(C)C)C(=O)N[C@@H](CCCCN)C(=O)N[C@H](C(=O)N[C@@H](C)C(=O)N[C@@H](C)C(=O)N[C@@H](CCCCN)C(=O)N[C@@H](CCCCN)C(=O)N[C@@H](Cc1ccc(O)cc1)C(=O)N[C@@H](CC(C)C)C(=O)N[C@@H](CCC(N)=O)C(=O)N[C@@H](CO)C(=O)N[C@H](C(=O)N[C@@H](CCCCN)C(=O)N[C@@H](CC(N)=O)C(=O)N[C@@H](CO)C(=O)N[C@@H](CCCNC(=N)N)C(=O)N[C@H](C(=O)N[C@@H](CO)C(=O)N1CCC[C@H]1C(=O)N1CCC[C@H]1C(=O)N1CCC[C@H]1C(N)=O)[C@@H](C)O)[C@@H](C)CC)C(C)C)[C@@H](C)O)[C@@H](C)O)C(C)C) [P156]
